This test concerns the target 牛血清蛋白 (BSA) (bovine, UniProt P02769 25-607). Briefly: ELISA. (An ELISA detects its analyte on a solid surface through an enzyme-linked reagent.)

Sequence of 牛血清蛋白 (BSA) (P02769 25-607 limits assumed): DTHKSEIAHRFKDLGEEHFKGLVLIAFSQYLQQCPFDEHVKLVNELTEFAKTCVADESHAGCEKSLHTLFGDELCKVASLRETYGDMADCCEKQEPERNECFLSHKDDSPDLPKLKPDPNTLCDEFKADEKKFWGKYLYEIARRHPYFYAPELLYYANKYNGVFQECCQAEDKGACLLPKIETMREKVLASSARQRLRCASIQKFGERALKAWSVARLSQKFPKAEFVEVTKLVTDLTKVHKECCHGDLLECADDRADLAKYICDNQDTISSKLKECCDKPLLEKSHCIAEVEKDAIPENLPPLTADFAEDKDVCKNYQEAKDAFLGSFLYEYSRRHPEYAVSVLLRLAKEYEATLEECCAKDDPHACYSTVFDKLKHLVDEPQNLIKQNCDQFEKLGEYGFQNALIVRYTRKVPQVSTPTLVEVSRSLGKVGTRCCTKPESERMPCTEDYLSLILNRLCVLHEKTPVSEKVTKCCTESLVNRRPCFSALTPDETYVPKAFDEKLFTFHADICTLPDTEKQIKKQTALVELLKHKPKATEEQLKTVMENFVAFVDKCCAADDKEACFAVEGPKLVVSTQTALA

B1: F1 Fab片段 (purified Fab fragment of anti-H1N1 monoclonal antibody F1) (Fab, V domains shown)
VH: QVQLKESGDDLVKPGASVKLSCKASGYTFTNYWINWIKQRPGQGLEWIGRTAPGSGSTYYNELFKGKATLTVDTSSSTAYIQLSSLSSEDSAVYFCALSTGTGALDYWGQGTSVTVS
VL: DIVMTQSPLSLPVSLGDQASISCRSSQSLVHSNGNTYLHWYLQKPGQSPKLLIYKVSNRFSGVPDRFSGSGSGTDFTLKISRVEAEDLGVYFCSQSTHVPWTFGGGTKLEIKR
notes: also called 抗体F1Fab; 单克隆抗体F1
On to B1, for which the binding result is given as “no binding”.

The values above are taken from patent CN110845607A (UNIV WEIFANG MEDICAL; SHANDONG KUANHEZHENG BIOMEDICINE CO …, dated 2020).
